From the DeepSol protein solubility set

test: soluble on expression in E. coli; label from the status in PepcDB or PDB records

Row | Sequence | soluble on expression in E. coli
1 | MYRNLLNWLTILLVFPSCSGTSPTISVVCEENNVGNAIIKWETAPILKGQVKVYASTSPDFIPEENPVVTINIAKGKKTIVTNDPSQRYYYLMVFNNRYRVRVAARNVNIPGIQNFRDLGGYKSAETGKDTRWGMLYRSAQIDSIPFCSRRELKNMGIRTIIDLRSEEERHNYPQLHDEDFNVLHLPIATGNMEHILQDIRDKKIETDTIYRLVERMNRQLVTNYRKEYKELFTLLLDRNNYPVVIHCTSGKGRTGIVSALVLAALGVNEEAIMKDYRLSNDYFNIPKASRYAYKLPINSQEAITTIYSAKEDFLNAAKEQIDAEYGSVQAYLKKGIGLSAEEIERLRSILLIDNGLEHHHHHH | not soluble
2 | MYRQGTNQSVCSDADEFTPEELQEFAQAFKLFDKDGNNTMNIKELGEAMRMLGLNPTEEELLNMVNEYDVDGNGKIDFGEFCKMMKEMNKETDQELIRLAFKVFDKDGNGYITAQEFKHFMTTMGERFSEEEVDEIIREVDKDGDEQIDLDEFVNMVAPIVSDGTKTDPFLEPTASTNPPTK | not soluble
3 | MYRRLASGLYQTSQRRIAQVQPKSVFVPETIVTTLPNGFRVATENTGGSTATIGVFIDAGSRYENEKNNGTAHFLEHMAFKGTPRRTRMGLELEVENIGAHLNAYTSRESTTYYAKCFTEKLDQSVDILSDILLNSSLATKDIEAERGVIIREMEEVAQNFQEVVFDILHADVFKGNPLSYTILGPIELIQTINKNDLQGYINTHYRSGRMVLAAAGGVNHDAIVKMAEKYFGELKHGDSSTEFVPATYSPCEVRGDIPDLPMLYGAMVVEGVSWTHEDNLALMVANTLMGEYDRMRGFGVNAPTRLAEKLSQDAGIEVFQSFNTCYKETGLVGTYFVAAPESIDNLIDSVLQQWVWLANNIDEAAVDRAKRSLHTNLLLMLDGSTPVCEDIGRQLLCYGRRIPTPELHARIESITVQQLRDVCRRVFLEGQVSAAVVGKTQYWPVNEEIHGRLIRMQ | not soluble
4 | MYSIIRPFLLHAVTSVHAGSGSEIGLVDLPIQREKHTGFPKIESSSLKGALRYHMTQALPDETNKLELIFGADKGQESVTQASAIALSDARVLLFPVKSLRGVFAWITCPHVLERWNQEMSVHQEMKGKGEGFQSLPVPGPNTVSADRLIVADGRIILEEYTFPVTVSPEAKQLAEQLSAIIGESSRLRVTDRLVILSDDDFTDFVKLSTEVNARIRISPETGTVDSGALWYEENVPPETFFYSFLYIGHVRGKGVDGLATAEEIERYLVDERKFPSVFQLGGNSTLGRGMMRTIWL | not soluble
5 | MYTLNWQPPYDWSWMLGFLAARAVSSVETVADSYYARSLAVGEYRGVVTAIPDIARHTLHINLSAGLEPVAAECLAKMSRLFDLQCNPQIVNGALGRLGAARPGLRLPGCVDAFEQGVRAILGQLVSVAMAAKLTARVAQLYGERLDDFPEYICFPTPQRLAAADPQALKALGMPLKRAEALIHLANAALEGTLPMTIPGDVEQAMKTLQTFPGIGRWTANYFALRGWQAKDVFLPDDYLIKQRFPGMTPAQIRRYAERWKPWRSYALLHIWYTEGWQPDEA | soluble
6 | MYVVKSANDGGNSLFLSSSDIVNQLSKTETGKKHLKTLTGNLYPFKTPASFDKKQGVRWGNILSVNTQMIRFRSDCIYKGIEENRNKVSKEMVLALDYLINVIKNASDIQEFSAQDDGLIIIDNVNGLHARTDYTDKNRHYIRARITV | not soluble
7 | NAVNWGMREYKIYPYELLLVTTRGRNRLPKDVDRTRLERHLSQEEFYQVFGMTISEFDRLALWKRNELKKQARLF | soluble
8 | NDAIPTIFIHGYRGTDRSLHGMIRRFDQKYNWGTESLTVNVSPDGSISTTGTYSKNEKNPLINIVFEDNRATLPQQSMWTKKIMSYLQKNYDIKKFNAIGHSMGGGAWVSYLASYEKNKSYPQVNKIVFLAVPFYPEEYVNGDQQVDIKNANNVHAKFAQKMAKVLPDNTEIMIIGGDLEDGSNSDGEVKLNSVLYGQKLFAHQKVITHVIKGPKATHSSMHESTVVDKYVGQFLWG | not soluble
9 | NELDVPEQVDKLIQQATSIERLCQHYIGWCPFW | soluble
10 | NGHYMDQFTYAERATDWRGNNNIANSIFSQMQLEDHPIPSWVVMSPGTGGTSATIGRFIRYQKYDTKLCVVDPENSVFYDAFQSGNNELKGNTGSKIEGIGRPRVEPSFIAGVVDEMRKIPDAASIATAHWVSQLIGRKVGASTGTNLYGVLQLACEMKQRGETGSIVTLLCDSGERYLDTYYDLAWVKENIGDIQPYLTQLEVIQAKGCVEPACCGPITA | not soluble
11 | NGKLFLVGTPIGNLKDITLRALETLQNCDVIAAEDTRQSLKLLNHFDIKKPLISYHKFNENNRSSELMDMVREGKKVALVTDAGMPGISDPGSVIVEKFIENNLEFEVIPG | soluble
12 | NGNPIPMGYSQAVENNVQITNFALFSAAAIGVELCLFDEQNQETRLPMVRTENVWHLAVTGVKTGTEYAFRIHGEFANPQKLILDPYAKAVNGKPDLSSEESRSWFLLSDNRDNAHLAPRAVVIS | not soluble
13 | NIDLDVQNMAQNALKFGYDEIVKRDKDANLSTLNGAMVVVNHQSGDVLALVGGVDYEKSNYNRATQSMRQPGSSFKPFVYQVAINLGYSPMSEIADISRIFEGGAGNNEDWKPKNEGGKFLGLITLKEALTRSRNLATINLALDMGLDVLYSKLMEFGFKDIPPNLSIVLGSFGISPLEYSKFYTMFGNYGTIKDPQIIRQVQDKTGKTIMEFNSNERKVSDEAQSFLVLDMMRNVVEKGTGRNARVKDIEIAGKTGTTNKSVDAWFCGLTPEIEAIIWYGNDNNKPMRYTEGGARTAAPVFREFLTQYIEKFPDTTR | not soluble
14 | NIQGRTARQTDYLFQIKKHDITFGIGPAGTGKTYLAVACAVDALERELVSRVILVRPAVEAGERLGFLPGDMVQKVDPYLRPLYDALYDLMGFEKVSKHFERGIIEIAPLAFMRGRTLNQSFIILDEAQNTTAEQMKMFLTRIGFGSKAVITGDITQIDLPKHQKSGLVEAERVLKNVNGIAFTRFRTEDVVRHPLVQRIVDAYEKYAPDK | not soluble
15 | NKYNKIANELIKIIGEDNIISITHCATRLRVMVKDREIINDKKVEKVDEVKGVFFTSGQYQIILGTGIVNKVYAEVEKMGLKTLSKKEQDELVKNNE | soluble
16 | NLEGKGCSVLDQAGLAQKFGPVVSHIRIAARQEDLFAVRIAAGEAHLLLGCDLLVAAGPDAIAKLDSKISHAVINSQQTPTAEFTRNPDAVFPAEAMKQTIIDAVGADKTHFVEATSLATRLMGDSIASNLFMLGYAFQLGLIPLTSAAIEKAIELNGVAVNLNQQAFLWGRRTAHDPAAVEAFVNPQP | not soluble
17 | NLSASNRALPVLTLFTKAPCPLCDEAKEVLQPYKDRFILQEVDITLPENSTWYERYKFDIPVFHLNGQFLMMHRVNTSKLEKQLRKL | soluble
18 | NLYHTPIFSVDREYEWLEKRHDKMLFAFDIPIHLTRRVLLVAGEAHTGGTMEAFTRYLRSIGVGEIKTCVFYKQSICTQHIDFWGMEGENTILMPWQNAQSIRDSLSKAQANQLKKIQRQRDC | not soluble
19 | NPDGLSQEQLEHRERSLQTLRDIQRMLFPDEKEFTGAQSGGPQQNP | soluble
20 | NSESKSTPKRLHVSNIPFRFRDPDLRQMFGQFGKILDVEIIFNERGSKGFGFVTFENSADADRAREKLHGTVVEGRKIEVNNATARVMTN | soluble
21 | NSFFKTGWKRFYLKWYGQDHPSAQALCPYTTELLKQFPNIKAAMFTALPPGSRLVRHRDPFAGSVRYHLGLITPNDDRCYIDVDGQQYSWRDGEAVIFDETYLHYAENTTDQNRIILFCDVERPMWFWPARVVNRIVSRVLVGAANSPN | not soluble
22 | NTKPENDLERAKRKNERAKARCVGITFETRPDYAREEHIREMLRFGGTKVELGVQSLYDDVLERIKRGHGVKEVAEATRLLRDSAFKVGYHIMPGLPGSSFERDLRMFRELFENDSFKPDYLKIYPTLVVEGTELYEMWKRGEYEPYTTEEVVELIVMAKRRFPE | not soluble
23 | NTRGMALFADGGLIATKPYSASGSYINKMSDYCASCAYQVKLKSGEKACPLNSLYWRFMLKHRDRLANNPRIGMLYKTWDKMTSDSQQAILSTADAYLSQIESL | not soluble
